The text below walks through data of patent US20250042970A1 (AURINIA PHARMACEUTICALS, published 2025).

Substitutions are numbered along the chain they refer to.

Sequences and labels used below:
T1: FLAG-tagged cynomolgous APRIL (cynomolgus monkey, UniProt A0ACM8R0G4 110-250 (rhesus entry))
T1 construct: FLAG-tagged, expressed with TPA signal peptide; also called cyAPRIL
T1 sequence: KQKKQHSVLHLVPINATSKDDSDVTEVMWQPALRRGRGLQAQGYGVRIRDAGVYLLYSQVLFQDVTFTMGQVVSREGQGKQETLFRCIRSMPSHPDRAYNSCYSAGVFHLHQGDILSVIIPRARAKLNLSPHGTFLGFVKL

B1: 6HIS-tagged murine BAFF (ligand, mouse, UniProt Q9WU72 127-309, looked up)
chain: AFQGPEETEQDVDLSAPPAPCLPGCRHSQHDDNGMNLRNIIQDCLQLIADSDTPTIRKGTYTFVPWLLSFKRGNALEEKENKIVVRQTGYFFIYSQVLYTDPIFAMGHVIQRKKVHVFGDELSLVTLFRCIQNMPKTLPNNSCYSAGIARLEEGDEIQLAIPRENAQISRNGDDTFFGALKLL
notes: also called mBAFF; muBAFF
B2: Variant BAv8-10-Ig (Fc fusion, human)
chain: AGQCSQNEYFDHLLRACIPCQVRCSSNTPPLTCQRYCNAGVTNSVKGTNAERKSSVECPPSPAPPVAGPSVFLFPPKPKDTLMISRTPEVTCVVVDVSHEDPEVQFNWYVDGVEVHNAKTKPREEQFNSTFRVVSVLTVVHQDWLNGKEYKCKVSNKGLPAPIEKTISKTKGQPREPQVYTLPPSREEMTKNQVSLTCLVKGFYPSDISVEWESNGQPENNYKTTPPMLDSDGSFFLYSKLTVDKSRWQQGNVFSCSVMHEALHNHYTQKSLSLSPGK
notes: domain: Fc; also called Variant 8-10-Ig; BAv8-10-PIg18
B3: Variant BAv9-5-Ig (Fc fusion, human)
chain: B2 chain with H12R, L14V, V22L
notes: domain: Fc; also called Variant 9-5-Ig; BAv9-5-PIg18
B4: FLAG-tagged recombinant human APRIL (ligand)
chain: AVLTQKQKKQHSVLHLVPINATSKDDSDVTEVMWQPALRRGRGLQAQGYGVRIQDAGVYLLYSQVLFQDVTFTMGQVVSREGQGRQETLFRCIRSMPSHPDRAYNSCYSAGVFHLHQGDILSVIIPRARAKLNLSPHGTFLGFVKL
notes: KINEXA ligand; also called huAPRIL

Test [1] concerns the target B3. Description: BIACORE SPR. An excerpt: (§1) The standard kinetic assay measures binding kinetics of trimeric ligand (e.g., human BAFF, cynomolgus monkey APRIL, mouse BAFF, or mouse APRIL) coated on sensor chips and dimeric analytes (e.g., variant BCMA-Ig fusion proteins) in the mobile phase. […] For human BAFF, cynomolgus monkey APRIL, and mouse APRIL measurements, mouse monoclonal antibody (IgG1) anti-FLAG M2 (Sigma Aldrich, Cat. No. F1804) was immobilized on CM3 sensor chips (GE Healthcare, Cat. No. BR-1005-41) according to the manufacturer's protocol. Antibody was diluted to 30 μg/ml in immobilization buffer (10 mM pH 5±0.20; GE Healthcare; GE Healthcare, Catalog No. BR-1003-51). […] Unreacted sites were quenched with 35 μl of 1M ethanolamine-HCl, pH 8.5 (GE Healthcare, GE Healthcare, Cat. No. BR-1000-50). This procedure typically yielded 3,000-4,000 response units (RU) of coupled antibody.
(§2) The fusion polypeptides were diluted in HBS-EP buffer and flowed over ligand-coated sensor chips. The variant BCMA-Ig and surrogate control fusion proteins were injected at three concentrations (1.5 nM, 15 nM, and 150 nM at 30 μl/min for 2 minutes per association phase) in a single binding cycle, followed by a 20 minute incubation with HBS-EP buffer containing no protein at the same flow rate. A similar protocol was followed for Z-TACI-Ig, except that the injections were at 4.5 nM, 45 nM, and 450 nM.
(§3) The analyses described above were performed on protein preparations of representative variant BCMA ECD-Ig fusion polypeptides, as well as the Z-TACI-Ig and [S40G]huBCMA ECD-Ig control fusion polypeptides, and the data is presented in Table 1.
Target sequence in this assay (P01859 other isoform, or with tags, fused parts or gaps mutant limits assumed): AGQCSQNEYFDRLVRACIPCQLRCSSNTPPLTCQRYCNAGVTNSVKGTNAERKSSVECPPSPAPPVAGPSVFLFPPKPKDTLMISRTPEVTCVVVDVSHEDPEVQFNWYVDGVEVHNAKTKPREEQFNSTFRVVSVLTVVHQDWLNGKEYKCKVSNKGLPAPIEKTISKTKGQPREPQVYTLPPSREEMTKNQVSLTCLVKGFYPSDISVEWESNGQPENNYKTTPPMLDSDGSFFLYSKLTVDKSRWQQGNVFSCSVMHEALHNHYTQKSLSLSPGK
(In SPR one partner is held on a chip, and binding of the other changes the refractive index at the surface.)

In test [2] the target is T2, Variant BAv11-6-Ig (human, UniProt P01859-1 99-326 = IgG part).
T2 construct: domain: Fc; also called Variant 11-6-Ig; BAv11-6-PIg18
The experiment in a line: BIACORE SPR.
Description: as §1, §2, §3
Target sequence in this assay (P01859 other isoform, or with tags, fused parts or gaps mutant limits assumed): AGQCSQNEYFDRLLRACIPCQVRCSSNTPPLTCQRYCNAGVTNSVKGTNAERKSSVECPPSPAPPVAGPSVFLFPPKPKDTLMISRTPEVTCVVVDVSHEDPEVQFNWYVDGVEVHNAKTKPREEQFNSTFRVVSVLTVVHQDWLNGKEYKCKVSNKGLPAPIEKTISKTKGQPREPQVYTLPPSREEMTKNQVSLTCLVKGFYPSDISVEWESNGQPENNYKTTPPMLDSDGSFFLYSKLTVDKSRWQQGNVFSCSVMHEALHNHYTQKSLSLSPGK

In a further test the target is T3, Variant 50238475-Ig (human, UniProt P01859-1 99-326 = IgG part).
T3 construct: domain: Fc; also called Parent 9; Variant 50238475-PIg18
The experiment in a line: BIACORE SPR.
Description: as §1, §2, §3

Test [3] has as its target T4, Variant BAv3-10-Ig (human, UniProt P01859-1 99-326 = IgG part).
T4 construct: domain: Fc; also called Variant 3-10-Ig; BAv3-10-PIg18
The experiment in a line: BIACORE SPR.
Description: as §1, §2, §3
Target sequence in this assay (P01859 other isoform, or with tags, fused parts or gaps mutant limits assumed): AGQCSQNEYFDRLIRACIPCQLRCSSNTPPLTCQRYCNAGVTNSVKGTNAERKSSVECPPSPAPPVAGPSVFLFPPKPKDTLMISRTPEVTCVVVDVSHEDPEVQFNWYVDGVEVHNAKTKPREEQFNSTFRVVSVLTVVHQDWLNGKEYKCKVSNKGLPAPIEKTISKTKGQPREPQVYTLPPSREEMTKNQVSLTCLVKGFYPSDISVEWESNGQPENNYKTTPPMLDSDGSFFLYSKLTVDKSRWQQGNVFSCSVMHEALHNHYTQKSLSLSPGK

The target of test [4] is T5, Variant BAv9-1-Ig (human, UniProt P01859-1 99-326 = IgG part).
T5 construct: domain: Fc; also called Variant 9-1-Ig; BAv9-1-pIg18
The experiment in a line: BIACORE SPR.
Description: as §1, §2, §3
Target sequence in this assay (P01859 other isoform, or with tags, fused parts or gaps mutant limits assumed): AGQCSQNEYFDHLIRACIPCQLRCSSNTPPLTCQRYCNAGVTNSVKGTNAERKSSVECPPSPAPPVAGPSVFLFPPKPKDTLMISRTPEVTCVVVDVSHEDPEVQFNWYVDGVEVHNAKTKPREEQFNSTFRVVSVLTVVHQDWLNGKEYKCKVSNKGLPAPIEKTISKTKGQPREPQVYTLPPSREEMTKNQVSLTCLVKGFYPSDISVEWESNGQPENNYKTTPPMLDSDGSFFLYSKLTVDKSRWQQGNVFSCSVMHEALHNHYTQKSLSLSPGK

A further test concerns the target T6, BAv66-Ig (human, UniProt P01859-1 99-326 = IgG part).
T6 construct: domain: Fc; also called Variant BAv66-Ig
Description: BIACORE SPR.
Description: as §1, §2, §3

For test [5], the target named is T7, Variant BAv1-12-Ig (human, UniProt P01859-1 99-326 = IgG part).
T7 construct: domain: Fc; also called Variant 1-12-Ig
Description: BIACORE SPR.
Description: as §1, §2, §3
Target sequence in this assay (P01859 other isoform, or with tags, fused parts or gaps mutant limits assumed): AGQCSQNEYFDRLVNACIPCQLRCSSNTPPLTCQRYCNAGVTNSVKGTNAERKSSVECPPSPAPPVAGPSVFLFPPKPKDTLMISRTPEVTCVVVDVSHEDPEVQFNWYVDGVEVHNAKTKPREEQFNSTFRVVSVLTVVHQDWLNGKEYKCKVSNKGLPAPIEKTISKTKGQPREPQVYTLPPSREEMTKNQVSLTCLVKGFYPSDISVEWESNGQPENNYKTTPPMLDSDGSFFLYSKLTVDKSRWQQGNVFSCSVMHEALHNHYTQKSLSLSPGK

For test [6], the target named is B2. The experiment in a line: BIACORE SPR.
Description: as §1, §2, §3

The target in test [7] is T8, Variant BAv8-9-Ig (human, UniProt P01859-1 99-326 = IgG part).
T8 construct: domain: Fc; also called Variant 8-9-Ig; BAv8-9-PIg18
Description: BIACORE SPR.
Description: as §1, §2, §3
Target sequence in this assay (P01859 other isoform, or with tags, fused parts or gaps mutant limits assumed): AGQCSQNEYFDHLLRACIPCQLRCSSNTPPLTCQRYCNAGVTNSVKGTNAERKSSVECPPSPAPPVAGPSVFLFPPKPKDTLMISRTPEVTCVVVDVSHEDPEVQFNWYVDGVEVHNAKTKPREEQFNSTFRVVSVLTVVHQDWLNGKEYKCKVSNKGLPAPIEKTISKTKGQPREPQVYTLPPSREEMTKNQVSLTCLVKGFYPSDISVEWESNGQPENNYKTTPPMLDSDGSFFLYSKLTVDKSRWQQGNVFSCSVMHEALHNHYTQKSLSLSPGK

Test [8] addresses T9, FLAG-tagged human BAFF (human, UniProt Q9Y275 134-285, limits assumed).
T9 construct: used in BIACORE (Ex. 9) and KINEXA (Ex. 11); also called huBAFF
Description: BIACORE SPR.
Description: as §1, §2, §3

In test [9] the target is T1, FLAG-tagged cynomolgous APRIL. The experiment in a line: BIACORE SPR.
Description: as §1, §2, §3

For test [10], the target named is T9, FLAG-tagged human BAFF. Description: KinExA. A general note: In KinExA the mixture passes briefly over coated beads that capture the unbound partner.
Test [11] deals with B4. Description: KinExA.
In test [12] the target is T9, FLAG-tagged human BAFF. The experiment in a line: BIACORE SPR. On the procedure:
(§4) For human BAFF, cynomolgus monkey APRIL, and mouse APRIL measurements, mouse monoclonal antibody (IgG1) anti-FLAG M2 (Sigma Aldrich, Cat. No. F1804) was immobilized on CM3 sensor chips (GE Healthcare, Cat. No. BR-1005-41) according to the manufacturer's protocol. Antibody was diluted to 30 μg/ml in immobilization buffer (10 mM pH 5±0.20; GE Healthcare; GE Healthcare, Catalog No. BR-1003-51). […] Unreacted sites were quenched with 35 μl of 1M ethanolamine-HCl, pH 8.5 (GE Healthcare, GE Healthcare, Cat. No. BR-1000-50). This procedure typically yielded 3,000-4,000 response units (RU) of coupled antibody.
as §2
(§5) Using available information from the structures and published literature, several residues in BAv8-10 were targeted for substitution with conserved as well as non-conserved residues and their effect on BAFF and APRIL binding was assessed by BIACORE.
The source holds these as a separate data set.

The target of test [13] is T1, FLAG-tagged cynomolgous APRIL. Description: BIACORE SPR. Here is the method:
as §4, §2, §5
This is another data set of the same source.

Test [14] addresses T9, FLAG-tagged human BAFF. Description: KinExA. The source holds these as a separate data set.
Test [15] addresses B4. Description: KinExA. The source holds these as a separate data set.
The target of a further test is membrane-huBAFF (human, UniProt Q9Y275 1-285). Description: cell-based or functional assay.
The target of test [16] is T5, Variant BAv9-1-Ig. The experiment in a line: KinExA.
Test [17] addresses B3. Description: KinExA.
In test [18] the target is T2, Variant BAv11-6-Ig. The experiment in a line: KinExA.
The target in test [19] is T4, Variant BAv3-10-Ig. Description: KinExA.
The target in a further test is T10, Variant 9-3-Ig (human, UniProt P01859-1 99-326 = IgG part).
T10 construct: domain: Fc; also called BAv9-3
The experiment in a line: KinExA.

Test [20] concerns the target T5, Variant BAv9-1-Ig. Description: KinExA. The source holds these as a separate data set.
Test [21] concerns the target T7, Variant BAv1-12-Ig. The experiment in a line: KinExA.
Test [22] has as its target B2. The experiment in a line: KinExA.
Test [23] deals with T8, Variant BAv8-9-Ig. Description: KinExA.

T3 sequence (P01859 other isoform, or with tags, fused parts or gaps mutant limits assumed): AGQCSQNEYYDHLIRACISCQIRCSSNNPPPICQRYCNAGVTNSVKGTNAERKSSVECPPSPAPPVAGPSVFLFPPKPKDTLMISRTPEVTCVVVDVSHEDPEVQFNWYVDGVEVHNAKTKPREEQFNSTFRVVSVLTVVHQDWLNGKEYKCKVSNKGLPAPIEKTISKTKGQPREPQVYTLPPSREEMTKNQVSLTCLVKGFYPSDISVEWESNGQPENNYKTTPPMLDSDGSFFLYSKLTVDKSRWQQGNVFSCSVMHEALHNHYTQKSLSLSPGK
T6 sequence (P01859 other isoform, or with tags, fused parts or gaps limits assumed): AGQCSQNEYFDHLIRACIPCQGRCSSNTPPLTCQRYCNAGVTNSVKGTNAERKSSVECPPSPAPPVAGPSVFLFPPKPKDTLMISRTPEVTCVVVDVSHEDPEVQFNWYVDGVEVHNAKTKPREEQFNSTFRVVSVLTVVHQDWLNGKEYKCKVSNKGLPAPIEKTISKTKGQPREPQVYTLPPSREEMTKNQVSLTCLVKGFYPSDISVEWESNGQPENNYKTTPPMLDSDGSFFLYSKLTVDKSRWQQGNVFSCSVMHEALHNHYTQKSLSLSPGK

One may read the Kd as the concentration at which binding is half-saturated. In the case of B1, the Kd was found to be 21.6 pM in the test with Variant BAv9-5-Ig [1]; 18.1 pM with Variant BAv11-6-Ig [2]; 26.4 pM with Variant 50238475-Ig; 14.9 pM in the test with Variant BAv3-10-Ig [3]; 15 pM with Variant BAv9-1-Ig [4]; 62.3 pM in the test with BAv66-Ig. Besides, the figures for the Kd with Variant BAv1-12-Ig [5], in the test with Variant BAv8-10-Ig [6] and in the test with Variant BAv8-9-Ig [7] were 33.9 pM, 17.1 pM and 14.9 pM, respectively.
Regarding B2, the “fold improvement KD vs control” value with FLAG-tagged human BAFF [8] is 5.3 fold; in [9], 0.3 fold. Moreover, the “Selectivity for huBAFF (KD APRIL/KD BAFF)” value in the test with FLAG-tagged human BAFF [10] was determined as 3.33 ratio. In test [11], the “Selectivity for huAPRIL (KD BAFF/KD APRIL)” value stood at 0.3 ratio. Further, the “fold improvement over control” value came out at 13.1 fold with FLAG-tagged human BAFF [12], 0.75 fold in [13], 233 fold with FLAG-tagged human BAFF [14] and 0.05 fold in test [15].
On to B3, for which the figures for the “fold improvement KD vs control” value (with FLAG-tagged human BAFF [8]; in test [9]) were 10.9 fold and 0.5 fold, respectively. The “Selectivity for huBAFF (KD APRIL/KD BAFF)” value with FLAG-tagged human BAFF [10] turned out to be 2.59 ratio. Further, the “Selectivity for huAPRIL (KD BAFF/KD APRIL)” value in test [11] worked out at 0.39 ratio. The “IC50 (read off the curve) (NFkappaB luciferase signal of HEK293-huBCMA reporter cells stimulated with HEK-293 cells expressing membrane huBAFF)” value with membrane-huBAFF is approximately 500 pM. In addition, the “fold improvement over control” value in the test with FLAG-tagged human BAFF [14] stood at 358 fold; in [15], 0.1 fold.
Consider B4, for which the Kd with Variant BAv9-1-Ig [16] is 0.198 pM; with Variant BAv9-5-Ig [17] it was 1.64 pM; with Variant BAv11-6-Ig [18], 1.63 pM; with Variant BAv3-10-Ig [19], 0.337 pM; with Variant 9-3-Ig, 18.9 pM; in the test with Variant BAv9-1-Ig [20] it was 0.198 pM. Also, the Kd with Variant BAv1-12-Ig [21] is 0.275 pM; with Variant BAv8-10-Ig [22], 3.23 pM; with Variant BAv8-9-Ig [23] it was 0.0224 pM.
